Patent US20220169740A1 (KINDRED BIOSCIENCES, published 2022)

Columns and labels:
[1] = target: T1, human NGF (Sino Biological, Inc.; Catalog No. 11050-HNAC) (human, UniProt P01138 122-241, limits assumed, biotinylated in the Octet assay of Example 3 (sites not given); not biotinylated in the TF1 assay); test: cell-based or functional assay
[2] = target: T1, human NGF (Sino Biological, Inc.; …); test: BLI (Octet); biotinylated human NGF on streptavidin tips, TrkA-Fc 25 ug/mL; 1:1 fit
Protocol: Binding activity of canine, feline, and equine TrkA ECD v2 and v3 fusion polypeptides prepared in Example 2 (SEQ ID NOs: 16, 17, 19, 20, 22, and 23) to commercially-available human NGF was considered. The binding analysis was performed using a biosensor Octet as follows. Briefly, human NGF (Sino Biological, Inc.; Catalog No. 11050-HNAC) was biotinylated. The free unreacted biotin was removed from biotinylated NGF by extensive dialysis. Biotinylated NGF was captured on streptavidin sensor tips. The association of NGF with TrkA-Fc (25 ug/mL) was monitored for 600 seconds. Dissociation was monitored for 600 seconds. A buffer only blank curve was subtracted to correct for any drift. The data were fit to a 1:1 binding model using ForteBio™ data analysis software to determine the kₒₙ, koff, and the Kd. The buffer for dilutions and all binding steps was: 20 mM phosphate, 150 mM NaCl, pH 7.2.
FIG. 1 and FIG. 2 are sensorgrams showing that canine, feline, and equine TrkA ECD v2 and v3 fusion polypeptides all bind NGF. […] Irrelevant canine and feline IgG-Fc fusion proteins were used as a negative control.

T1 sequence (P01138 122-241 limits assumed): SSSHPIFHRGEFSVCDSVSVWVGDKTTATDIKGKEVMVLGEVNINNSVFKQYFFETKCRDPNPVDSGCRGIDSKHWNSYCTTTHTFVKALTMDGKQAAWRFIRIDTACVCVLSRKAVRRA

B1: Equine TrkA ECD v2-variant equine IgG2 Fc (Protein A+, C1q-, CD16-) (Fc fusion)
chain: VSFPASVHLQTAVEQHHWCIPFSVDGQPAPTLRWLFNGSVLNETSFIFTEFLESAANETMRHGCLRLNQPTHVNNGNYTLLATNPYGQDSASVMVAFMDNPFEFNPEDPIPVSFSPVDTNSTSRDPPCVLSAEGVIPIPSVPKPQCPPYTHSKFLGGPSVFIFPPNPKDTLMISRTPVVTCVVVNLSDQYPDVQFSWYVDNTEVHSAITKQREAQFNSTYRVVSVLPIQHQDWLSGKEFKCSVTNVGVPQPISRAISRGKGPSRVPQVYVLPPHPDELAKSKVSVTCLVKDFYPPDISVEWQSNRWPELEGKYSTTPAQLDGDGSYFLYSKLSLETSRWQQVESFTCAVMHEALHNHYTKTDISESLGK
notes: CHO; also called equine TrkA ECD v2 fusion polypeptide; equine TrkA v2
B1 was tested, and the “IC50, TF1 cell proliferation assay (CellTiter-Glo luminescence; NGF at 10 ng/ml)” value [1] was 5.4 nM and the Kd [2] was about 1 nM.
